Data as given in patent publication US20220041711A1 (NGM BIOPHARMACEUTICALS, published 2022).
Like-named read-outs stand apart in the source and are kept apart here.

T1: human LAIR-1-ECD (human, UniProt Q6GTX8 22-165)
T1 construct: Recombinant, expressed in mammalian cells; also called extracellular region of human LAIR-1
T1 chain: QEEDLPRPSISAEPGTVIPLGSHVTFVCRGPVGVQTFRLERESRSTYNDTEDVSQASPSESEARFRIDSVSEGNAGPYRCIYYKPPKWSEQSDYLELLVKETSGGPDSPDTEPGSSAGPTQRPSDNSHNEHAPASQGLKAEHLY

T2: cyno LAIR-1-ECD (cynomolgus monkey)
T2 construct: Recombinant, expressed in mammalian cells; also called extracellular region of cyno LAIR-1
T2 chain: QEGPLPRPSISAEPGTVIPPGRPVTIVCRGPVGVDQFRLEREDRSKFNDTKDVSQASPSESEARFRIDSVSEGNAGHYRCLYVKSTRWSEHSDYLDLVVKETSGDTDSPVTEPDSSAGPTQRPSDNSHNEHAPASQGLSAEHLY

T3: human MARCO expressed on cells (721.221-MARCO, 293T-MARCO) (human, UniProt Q9UEW3 1-520)
T3 construct: also called 721.221 cells expressing MARCO
T3 sequence: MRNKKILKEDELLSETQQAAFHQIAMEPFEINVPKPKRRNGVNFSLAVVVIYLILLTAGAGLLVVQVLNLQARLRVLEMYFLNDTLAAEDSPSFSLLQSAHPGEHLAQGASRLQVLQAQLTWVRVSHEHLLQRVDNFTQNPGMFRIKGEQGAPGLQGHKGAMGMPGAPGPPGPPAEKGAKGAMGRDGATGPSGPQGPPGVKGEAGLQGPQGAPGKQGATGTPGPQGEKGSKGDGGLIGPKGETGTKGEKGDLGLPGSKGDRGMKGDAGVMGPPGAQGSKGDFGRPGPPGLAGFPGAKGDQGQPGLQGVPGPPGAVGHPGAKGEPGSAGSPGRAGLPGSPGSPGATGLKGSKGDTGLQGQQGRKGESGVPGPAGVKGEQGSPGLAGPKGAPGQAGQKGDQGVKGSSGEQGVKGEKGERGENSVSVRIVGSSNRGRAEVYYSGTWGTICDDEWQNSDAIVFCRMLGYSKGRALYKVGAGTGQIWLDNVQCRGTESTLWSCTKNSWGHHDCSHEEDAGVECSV

T4: mouse LAIR-1 (form in the assay not stated) (mouse, UniProt Q8BG84 22-144, limits assumed)
T4 sequence: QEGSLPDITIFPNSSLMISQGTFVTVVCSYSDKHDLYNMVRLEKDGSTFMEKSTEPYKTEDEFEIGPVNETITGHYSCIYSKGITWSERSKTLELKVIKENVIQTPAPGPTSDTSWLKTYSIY

T5: human LAIR-1b (alternative isoform of human LAIR-1) on transfected 293T cells (human, UniProt Q6GTX8 22-287)
T5 chain: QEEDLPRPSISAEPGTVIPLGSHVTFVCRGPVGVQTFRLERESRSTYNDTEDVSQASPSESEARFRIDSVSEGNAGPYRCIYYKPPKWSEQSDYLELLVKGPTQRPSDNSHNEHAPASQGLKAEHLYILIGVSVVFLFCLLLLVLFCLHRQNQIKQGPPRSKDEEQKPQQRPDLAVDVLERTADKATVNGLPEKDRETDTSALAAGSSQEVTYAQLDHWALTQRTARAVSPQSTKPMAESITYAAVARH

B1: anti-LAIR-1 antibody ch62G10 (antibody, V domains shown)
VH: EVQLVETGGGLVQPKGSLKLSCATSGFTFNINAMNWVRQAPGKGLEWVARIRTKNNNFATYYADSVKDRFTISRDDSQSMLYLQMNNLKTEDTAMYYCVRGPYFDYWGQGTTLTVSS
VL: DIQMTQSPASQSASLGESVTITCLASQTIGTWLAWYQQKPGKSPQLLIYAATSLADGVPSRFSGSGSGTKFSFKISNLQAEDFVTYYCQQLYSTPYTFGGGTKLEIK
notes: The prefix 'ch' is not defined
B2: LAIR-2-Fc (Fc fusion)
chain: QEGALPRPSISAEPGTVISPGSHVTFMCRGPVGVQTFRLEREDRAKYKDSYNVFRLGPSESEARFHIDSVSEGNAGLYRCLYYKPPGWSEHSDFLELLVKESSGGPDSPDTEPGSSAGTVPGTEASGFDAP
notes: LAIR-2 soluble protein fused to a Fc region; also called human LAIR-2-Fc; not shown: a Fc region
B3: humanized anti-LAIR-1 antibody Hz47H1.v4 (antibody, human IgG1, kappa, N297G, V domains shown)
VH: EVQLVESGGGLVQPGGSLRLSCAASGFTFNINAMNWVRQAPGKGLEWVARIRTKNYNYATFYADSVKDRFTISRDDSKNSLYLQMNSLKTEDTAVYYCVRDRAGFFAYWGQGTTVTVSS
VL: DIQMTQSPSSLSASVGDRVTITCLASQTIGTWLGWYQQKPGKAPKLLIYAATSLAEGVPSRFSGSGSGTDFTLTISSLQPEDFATYYCQQLYSTPLTFGGGTKVEIKR
notes: Humanized 47H1 with reengineered VH CDR2 and VL CDR2
B4: human LAIR-1-Fc (Fc fusion)
chain: T1 chain
notes: also called biotinylated human LAIR-1-Fc; not shown: a Fc region

Assays:
[1] = biological target: T1, human LAIR-1-ECD; experiment: SPR (Biacore) as in Example 2
[2] = biological target: T2, cyno LAIR-1-ECD; experiment: SPR (Biacore) as in Example 2
[3] = biological target: T6, human LAIR-1-CD3ζ chimeric receptor on NFAT-GFP reporter cells (human, UniProt P20963 31-164, limits assumed); experiment: cell-based or functional assay
Target sequence in this assay (P20963 other isoform, or with tags, fused parts or gaps mutant limits assumed): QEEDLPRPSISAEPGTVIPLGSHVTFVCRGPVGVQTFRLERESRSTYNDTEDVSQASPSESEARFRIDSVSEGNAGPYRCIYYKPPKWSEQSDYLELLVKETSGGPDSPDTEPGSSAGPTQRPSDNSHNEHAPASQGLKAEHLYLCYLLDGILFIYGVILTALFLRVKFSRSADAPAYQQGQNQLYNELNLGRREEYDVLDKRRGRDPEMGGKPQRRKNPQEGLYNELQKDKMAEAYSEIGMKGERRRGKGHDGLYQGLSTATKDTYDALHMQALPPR

[4] = biological target: T6, human LAIR-1-CD3ζ chimeric receptor on …; experiment: cell-based or functional assay; remark: listed apart in the source
[5] = biological target: T7, cyno LAIR-1-CD3ζ chimeric receptor on NFAT-GFP reporter cells (cynomolgus monkey; human); experiment: cell-based or functional assay
Target sequence in this assay (P20963 other isoform, or with tags, fused parts or gaps mutant limits assumed): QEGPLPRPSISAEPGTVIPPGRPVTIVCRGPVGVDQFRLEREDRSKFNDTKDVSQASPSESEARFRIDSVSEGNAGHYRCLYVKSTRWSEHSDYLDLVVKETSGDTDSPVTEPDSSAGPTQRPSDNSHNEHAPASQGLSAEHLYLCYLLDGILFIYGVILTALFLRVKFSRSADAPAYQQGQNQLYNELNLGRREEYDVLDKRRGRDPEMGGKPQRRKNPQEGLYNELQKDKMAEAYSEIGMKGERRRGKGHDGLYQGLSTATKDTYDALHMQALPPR

[6] = biological target: T6, human LAIR-1-CD3ζ chimeric receptor on …; experiment: cell-based or functional assay; remark: listed apart in the source
[7] = biological target: T7, cyno LAIR-1-CD3ζ chimeric receptor on …; experiment: cell-based or functional assay; remark: listed apart in the source
[8] = biological target: T6, human LAIR-1-CD3ζ chimeric receptor on …; experiment: cell-based or functional assay; remark: listed apart in the source
[9] = biological target: T7, cyno LAIR-1-CD3ζ chimeric receptor on …; experiment: cell-based or functional assay; remark: listed apart in the source
[10] = biological target: B4; experiment: ELISA blocking: plate coated with 5 µg/mL human collagen type 1, antibody titrated, 1 µg/mL biotinylated human LAIR-1-Fc, streptavidin-HRP, OD650
[11] = biological target: T3, human MARCO expressed on cells …; experiment: flow cytometry, Fc protein at 10 µg/mL on 721.221 cells expressing MARCO, PE anti-Fc secondary
[12] = biological target: T4, mouse LAIR-1 (form in the assay not …); experiment: not described
[13] = biological target: T6, human LAIR-1-CD3ζ chimeric receptor on …; experiment: cell-based or functional assay; remark: listed apart in the source
[14] = biological target: T6, human LAIR-1-CD3ζ chimeric receptor on …; experiment: flow cytometry on human LAIR-1 reporter cells, PE anti-human Fc secondary, MFI (panel Human LAIR1 Cells)
[15] = biological target: T7, cyno LAIR-1-CD3ζ chimeric receptor on …; experiment: flow cytometry on cyno LAIR-1 reporter cells, PE anti-human Fc secondary, MFI (panel Cynomolgus Monkey LAIR1 Cells)
[16] = biological target: T5, human LAIR-1b (alternative isoform of …); experiment: flow cytometry on cells expressing human LAIR-1b, PE anti-human Fc secondary, MFI (panel Human LAIR1 (Truncated) Cells)

Kd [1] | koff [1] | kon [1] | Kd [2] | koff [2] | kon [2] | IC50 (read off the curve): % GFP+ human LAIR-1 reporter cells on coated MARCO-his [4] | IC50 (read off the curve): % GFP+ human LAIR-1 reporter cells on coated collagen 1 [4] | IC50 (read off the curve): % GFP+ human LAIR-1 reporter cells on coated collagen 4 [4] | IC50 (read off the curve): % GFP+ cyno LAIR-1 reporter cells on coated MARCO-his [5] | IC50 (read off the curve): % GFP+ cyno LAIR-1 reporter cells on coated collagen 1 [5] | IC50 (read off the curve): % GFP+ cyno LAIR-1 reporter cells on coated collagen 4 [5] | IC50 (read off the curve): % GFP+ cyno LAIR-1 reporter cells co-cultured with bEnd.3 cells [7] | IC50 (read off the curve): % GFP+ cyno LAIR-1 reporter cells on polymerized collagen matrix [9] | IC50 (read off the curve) [10] | binding result [11] | Binder | further results
0.9 nM | 0.00069 s⁻¹ | 770000 M⁻¹ s⁻¹ | 16 nM | 0.0043 s⁻¹ | 280000 M⁻¹ s⁻¹ | ~0.06 nM | ~0.04 nM | ~0.03 nM | ~0.2 nM | ~0.4 nM | ~0.2 nM | ~0.2 nM | ~0.2 nM | ~3 nM |  | B1 | IC50 (read off the curve): % GFP+ human LAIR-1 reporter cells on coated MARCO-his [3]: ~0.07 nM; IC50 (read off the curve): % GFP+ human LAIR-1 reporter cells on coated collagen 1 [3]: ~0.1 nM; IC50 (read off the curve): % GFP+ human LAIR-1 reporter cells on coated collagen 4 [3]: ~0.1 nM; IC50 (read off the curve): % GFP+ human LAIR-1 reporter cells co-cultured with bEnd.3 cells [6]: ~0.04 nM; IC50 (read off the curve): % GFP+ human LAIR-1 reporter cells on polymerized collagen matrix [8]: ~0.03 nM
 |  |  |  |  |  |  |  |  |  |  |  |  |  |  | binds | B2 | 
0.26 nM | 0.0006 s⁻¹ | 2.3e+06 M⁻¹ s⁻¹ | 4.3 nM | 0.0016 s⁻¹ | 390000 M⁻¹ s⁻¹ | ~0.02 nM | ~0.02 nM | ~0.02 nM | ~0.06 nM | ~0.1 nM | ~0.08 nM | ~0.1 nM | ~0.09 nM | ~3 nM |  | B3 | binding result [12]: no binding; IC50 (M), reporter cell assay, ligand COLEC12 [13]: 1.2e-11 M; IC50 (M), reporter cell assay, ligand Collagen 1 [13]: 3.2e-11 M; IC50 (M), reporter cell assay, ligand Collagen 4 [13]: 3.2e-11 M; IC50 (M), reporter cell assay, ligand MARCO [13]: 3.2e-11 M; IC50 (M), reporter cell assay, ligand MBL [13]: 4.2e-11 M; IC50 (M), reporter cell assay, ligand Polymerized Collagen Matrix [13]: 3e-11 M; IC50 (M), reporter cell assay, ligand SPD [13]: 2e-11 M; IC50 (M), reporter cell assay, ligand Tumor Cell Collagens [13]: 1.6e-11 M; EC50 (read off the curve) [14]: ~0.2 nM; EC50 (read off the curve) [15]: ~1 nM; EC50 (read off the curve) [16]: ~2 nM
 |  |  |  |  |  |  |  |  |  |  |  |  |  |  | binds | B4 | 
